Measured values from publication PMC8416091.

Key:
[1] = confocal imaging of Flag tag, transfected NIH-3T3 cells; settings: glycan lost; control: wild-type Tlr2-Flag
[2] = confocal immunofluorescence of Tlr2, RAW264.7 cells; settings: control: untreated RAW264.7 cells

B1: Tlr2: N414Q/N442Q (protein)
parent chain: MLRALWLFWILVAITVLFSKRCSAQESLSCDASGVCDGRSRSFTSIPSGLTAAMKSLDLSFNKITYIGHGDLRACANLQVLILKSSRINTIEGDAFYSLGSLEHLDLSDNHLSSLSSSWFGPLSSLKYLNLMGNPYQTLGVTSLFPNLTNLQTLRIGNVETFSEIRRIDFAGLTSLNELEIKALSLRNYQSQSLKSIRDIHHLTLHLSESAFLLEIFADILSSVRYLELRDTNLARFQFSPLPVDEVSSPMKKLAFRGSVLTDESFNELLKLLRYILELSEVEFDDCTLNGLGDFNPSESDVVSELGKVETVTIRRLHIPQFYLFYDLSTVYSLLEKVKRITVENSKVFLVPCSFSQHLKSLEFLDLSENLMVEEYLKNSACKGAWPSLQTLVLSQNHLRSMQKTGEILLTLKNLTSLDISRNTFHPMPDSCQWPEKMRFLNLSSTGIRVVKTCIPQTLEVLDVSNNNLDSFSLFLPRLQELYISRNKLKTLPDASLFPVLLVMKIRENAVSTFSKDQLGSFPKLETLEAGDNHFVCSCELLSFTMETPALAQILVDWPDSYLCDSPPRLHGHRLQDARPSVLECHQAALVSGVCCALLLLILLVGALCHHFHGLWYLRMMWAWLQAKRKPKKAPCRDVCYDAFVSYSEQDSHWVENLMVQQLENSDPPFKLCLHKRDFVPGKWIIDNIIDSIEKSHKTVFVLSENFVRSEWCKYELDFSHFRLFDENNDAAILVLLEPIERKAIPQRFCKLRKIMNTKTYLEWPLDEGQQEVFWVNLRTAIKS
- localisation_or_trafficking [1]: decreases

B2: Tlr2: tunicamycin (protein)
parent chain: B1 parent chain
- localisation_or_trafficking ([2]; glycan lost): decreases

B3: Tlr2: kifunensine (protein)
parent chain: B1 parent chain
- localisation_or_trafficking ([2]; glycan changed form): changes

B4: Tlr2: swainsonine (protein)
parent chain: B1 parent chain
- localisation_or_trafficking ([2]; glycan changed form): changes
